Assay results as given in patent US20260209386A1 (MYTHIC THERAPEUTICS, published 2026).

target: T1, Human PTK7 Protein, His Tag (Acro Biosystems) (human, UniProt Q13308 31-704); assay: BLI (Octet), antibody on anti-human Fc sensor, 50 nM PTK7; 1 = pH dependent binding
T1 construct: Bought His-tagged recombinant human PTK7; also called CCK4; Tyrosine-protein kinase-like 7
T1 sequence: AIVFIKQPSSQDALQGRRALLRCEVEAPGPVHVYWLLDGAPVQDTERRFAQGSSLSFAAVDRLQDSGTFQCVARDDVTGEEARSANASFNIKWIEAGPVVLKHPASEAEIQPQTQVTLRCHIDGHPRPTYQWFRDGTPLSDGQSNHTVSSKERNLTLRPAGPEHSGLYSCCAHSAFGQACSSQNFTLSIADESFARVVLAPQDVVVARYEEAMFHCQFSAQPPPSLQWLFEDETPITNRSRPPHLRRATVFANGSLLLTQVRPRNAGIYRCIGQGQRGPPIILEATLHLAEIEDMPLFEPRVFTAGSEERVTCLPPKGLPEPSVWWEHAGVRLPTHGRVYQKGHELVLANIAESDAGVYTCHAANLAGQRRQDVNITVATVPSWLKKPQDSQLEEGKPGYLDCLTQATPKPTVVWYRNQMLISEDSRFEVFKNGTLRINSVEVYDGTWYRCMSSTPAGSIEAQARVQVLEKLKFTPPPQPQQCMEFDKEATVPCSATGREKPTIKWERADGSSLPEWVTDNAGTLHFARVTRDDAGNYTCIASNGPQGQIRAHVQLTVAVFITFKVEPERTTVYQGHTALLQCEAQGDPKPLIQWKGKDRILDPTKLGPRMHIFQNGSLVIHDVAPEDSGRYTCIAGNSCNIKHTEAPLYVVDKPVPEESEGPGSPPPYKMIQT

Binder	binding result
MYT11003 (antibody, V domains shown, MYT9359 LC variant; captured on anti-human Fc sensor) VH: EVQLVESGGGLVQPGGSLRLSCTASGFSLSSYAMGWVRQAPGKGLEWVGFINAGGNTYYANWAKGRFTISRDTSKNTVYLQMNSLRAEDTAVYFCARRYSRASGWYDLWGQGTLVTVSS VL: EIVMTQSPSTLSASVGDRVIITCQASQSISSYLAWYQQKPGKAPKLLIYHASTLASGVPSRFSGSGSGAEFTLTISSLQPDDFATYYCQSYSYSSGIDYGDVFGQGTKLTVL	binds
MYT11014 (antibody, V domains shown, MYT9359 LC variant; captured on anti-human Fc sensor) VH: EVQLVESGGGLVQPGGSLRLSCTASGFSLSSYAMGWVRQAPGKGLEWVGFINAGGNTYYANWAKGRFTISRDTSKNTVYLQMNSLRAEDTAVYFCARRYSRASGWYDLWGQGTLVTVSS VL: EIVMTQSPSTLSASVGDRVIITCQASQSISSYLAWYQQKPGKAPKLLIYAASTLASGVPSRFSGSGSGAEFTLTISSLQPDDFATYYCQSYSHSSGIDYGDVFGQGTKLTVL	binds
MYT11013 (antibody, V domains shown, MYT9359 LC variant; captured on anti-human Fc sensor) VH: EVQLVESGGGLVQPGGSLRLSCTASGFSLSSYAMGWVRQAPGKGLEWVGFINAGGNTYYANWAKGRFTISRDTSKNTVYLQMNSLRAEDTAVYFCARRYSRASGWYDLWGQGTLVTVSS VL: EIVMTQSPSTLSASVGDRVIITCQASQSISSYLAWYQQKPGKAPKLLIYAASTLASGVPSRFSGSGSGAEFTLTISSLQPDDFATYYCQSYHYSSGIDYGDVFGQGTKLTVL	binds
MYT11004 (antibody, V domains shown, MYT9359 LC variant; captured on anti-human Fc sensor) VH: EVQLVESGGGLVQPGGSLRLSCTASGFSLSSYAMGWVRQAPGKGLEWVGFINAGGNTYYANWAKGRFTISRDTSKNTVYLQMNSLRAEDTAVYFCARRYSRASGWYDLWGQGTLVTVSS VL: EIVMTQSPSTLSASVGDRVIITCQASQSISSYLAWYQQKPGKAPKLLIYAHSTLASGVPSRFSGSGSGAEFTLTISSLQPDDFATYYCQSYSYSSGIDYGDVFGQGTKLTVL	binds
MYT11010 (antibody, V domains shown, MYT9359 LC variant; captured on anti-human Fc sensor) VH: EVQLVESGGGLVQPGGSLRLSCTASGFSLSSYAMGWVRQAPGKGLEWVGFINAGGNTYYANWAKGRFTISRDTSKNTVYLQMNSLRAEDTAVYFCARRYSRASGWYDLWGQGTLVTVSS VL: EIVMTQSPSTLSASVGDRVIITCQASQSISSYLAWYQQKPGKAPKLLIYAASTLASGVPSRFSGSGSGAEFTLTISSLQPDDFATYYCHSYSYSSGIDYGDVFGQGTKLTVL	binds
MYT11012 (antibody, V domains shown, MYT9359 LC variant; captured on anti-human Fc sensor) VH: EVQLVESGGGLVQPGGSLRLSCTASGFSLSSYAMGWVRQAPGKGLEWVGFINAGGNTYYANWAKGRFTISRDTSKNTVYLQMNSLRAEDTAVYFCARRYSRASGWYDLWGQGTLVTVSS VL: EIVMTQSPSTLSASVGDRVIITCQASQSISSYLAWYQQKPGKAPKLLIYAASTLASGVPSRFSGSGSGAEFTLTISSLQPDDFATYYCQSHSYSSGIDYGDVFGQGTKLTVL	binds
MYT11018 (antibody, V domains shown, MYT9359 LC variant; captured on anti-human Fc sensor) VH: EVQLVESGGGLVQPGGSLRLSCTASGFSLSSYAMGWVRQAPGKGLEWVGFINAGGNTYYANWAKGRFTISRDTSKNTVYLQMNSLRAEDTAVYFCARRYSRASGWYDLWGQGTLVTVSS VL: EIVMTQSPSTLSASVGDRVIITCQASQSISSYLAWYQQKPGKAPKLLIYAASTLASGVPSRFSGSGSGAEFTLTISSLQPDDFATYYCQSYSYSSGHDYGDVFGQGTKLTVL	binds
MYT11006 (antibody, V domains shown, MYT9359 LC variant; captured on anti-human Fc sensor) VH: EVQLVESGGGLVQPGGSLRLSCTASGFSLSSYAMGWVRQAPGKGLEWVGFINAGGNTYYANWAKGRFTISRDTSKNTVYLQMNSLRAEDTAVYFCARRYSRASGWYDLWGQGTLVTVSS VL: EIVMTQSPSTLSASVGDRVIITCQASQSISSYLAWYQQKPGKAPKLLIYAASHLASGVPSRFSGSGSGAEFTLTISSLQPDDFATYYCQSYSYSSGIDYGDVFGQGTKLTVL	binds
